This is an account of results in patent US20230192896A1 (published 2023).

B1: BIIB-9-567 (antibody, V domains shown)
VH: QVQLVQSGAEVKKPGASVKVSCKASGYTFTSYYMHWVRQAPGQGLEWMGIINPSGGSTSYAQKFQGRVTMTRDTSTSTVYMELSSLRSEDTAVYYCARLGRRYYAYDGMDVWGQGTTVTVSS
VL: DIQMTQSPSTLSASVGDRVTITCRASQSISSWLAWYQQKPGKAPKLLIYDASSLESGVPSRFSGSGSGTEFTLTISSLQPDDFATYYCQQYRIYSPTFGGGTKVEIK
B2: BIIB-9-1287 (antibody, V domains shown)
VH: QLQLQESGPGLVKPSETLSLTCTVSGGSISSSDYYWGWIRQPPGKGLEWIGSIYYSGSTYYNPSLKSRVTISVDTSKNQFSLKLSSVTAADTAVYYCARSPRHKVRGPNWFDPWGQGTLVTVSS
VL: EIVLTQSPGTLSLSPGERATLSCRASQSVSSSYLAWYQQKPGQAPRLLIYGASSRATGIPDRFSGSGSGTDFTLTISRLEPEDFAVYYCQQYHLHPTFGGGTKVEIK
B3: BIIB-9-471 (antibody, V domains shown)
VH: QVQLQESGPGLVKPSQTLSLTCTVSGGSISSGGYYWSWIRQHPGKGLEWIGYIYYSGSTYYNPSLKSRVTISVDTSKNQFSLKLSSVTAADTAVYYCARSGVSGSGSDNWFDPWGQGTTVTVSS
VL: EIVLTQSPATLSLSPGERATLSCRASQSVSRYLAWYQQKPGQAPRLLIYDASNRATGIPARFSGSGSGTDFTLTISSLEPEDFAVYYCQQDYNYPFTFGGGTKVEIK
B4: BIIB-9-612 (antibody, V domains shown)
VH: QVQLVQSGAEVKKPGASVKVSCKASGYTFTSYYMHWVRQAPGQGLEWMGIINPSGGSTSYAQKFQGRVTMTRDTSTSTVYMELSSLRSEDTAVYYCARDAGYHWYGMDVWGQGTTVTVSS
VL: B3 VL with D91S, Y92S, N93L, Y94F, F96L
B5: BIIB-9-1268 (antibody, V domains shown)
VH: QVQLVQSGAEVKKPGASVKVSCKASGYTFTSYYMHWVRQAPGQGLEWMGIINPSGGSTSYAQKFQGRVTMTRDTSTSTVYMELSSLRSEDTAVYYCARDPPSWYVFDIWGQGTMVTVSS
VL: B3 VL with L4M, R31S, D91A, Y92T, N93V, Y94W
B6: BIIB-9-619 (antibody, V domains shown)
VH: QVQLVQSGAEVKKPGASVKVSCKASGYTFTSYYMHWVRQAPGQGLEWMGIINPSGGSTSYAQKFQGRVTMTRDTSTSTVYMELSSLRSEDTAVYYCARDGPRVSDYYMDVWGKGTTVTVSS
VL: B3 VL with R31S, D91R, Y92D, Y94W
B7: BIIB-9-1277 (antibody, V domains shown)
VH: QVQLVQSGAEVKKPGASVKVSCKASGYTFTSYYMHWVRQAPGQGLEWMGIINPSGGSTSYAQKFQGRVTMTRDTSTSTVYMELSSLRSEDTAVYYCARGGTGYYYGSGSRDGYHYYYGMDVWGQGTTVTVSS
VL: B3 VL with L4M, L13V, R31S, F83L, D91S, Y92A, Y94W, F96P
B8: BIIB-9-1266 (antibody, V domains shown)
VH: B4 VH with A100H, Y102W, H103A, W104I
VL: B3 VL with L4M, R31S, A51S, D91R, Y92L, Y94F
B9: BIIB-9-416 (antibody, V domains shown)
VH: QVQLVQSGAEVKKPGASVKVSCKASGYTFTSYYMHWVRQAPGQGLEWMGIINPSGGSTSYAQKFQGRVTMTRDTSTSTVYMELSSLRSEDTAVYYCAREGPMLDYPTYSNWFDPWGQGTLVTVS
VL: B3 VL with L4M, R31S, A51S, D91R, Y92V, N93V, Y94W, F96P
B10: BIIB-9-473 (antibody, V domains shown)
VH: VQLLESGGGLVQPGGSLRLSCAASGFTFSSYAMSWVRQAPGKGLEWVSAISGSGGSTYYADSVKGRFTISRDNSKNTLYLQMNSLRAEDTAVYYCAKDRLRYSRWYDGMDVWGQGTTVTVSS
VL: B3 VL with R31S, D91R, Y92S, N93F, Y94L, F96Y
B11: BIIB-9-565 (antibody, V domains shown)
VH: QLQLQESGPGLVKPSETLSLTCTVSGGSISSSSYYWGWIRQPPGKGLEWIGSIYYSGSTYYNPSLKSRVTISVDTSKNQFSLKLSSVTAADTAVYYCARAGMYSSYANWFDPWGQGTLVTVSS
VL: B3 VL with R31S, Y92S, Y94L
B12: BIIB-9-451 (antibody, V domains shown)
VH: QLQLQESGPGLVKPSETLSLTCTVSGGSISSSSYYWGWIRQPPGKGLEWIGSISYSGSTYYNPSLKSRVTISVDTSKNQFSLKLSSVTAADTAVYYCARDSGGYYYQGFDYWGQGTLVTVSS
VL: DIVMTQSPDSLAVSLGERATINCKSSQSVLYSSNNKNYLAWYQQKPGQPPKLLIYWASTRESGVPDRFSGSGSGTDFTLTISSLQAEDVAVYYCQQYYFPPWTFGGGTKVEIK
B13: BIIB-9-626 (antibody, V domains shown)
VH: B4 VH with I50V, A100L, G101Q, H103S, W104M, Y105T, G106Y, M107F, V109Y, T115L
VL: DIQMTQSPSTLSASVGDRVTITCRASQSISSWLAWYQQKPGKAPKLLIYKASSLESGVPSRFSGSGSGTEFTLTISSLQPDDFATYYCQQDGSYPPLTFGGGTKVEIK
B14: BIIB-9-628 (antibody, V domains shown)
VH: QVQLVQSGAEVKKPGASVKVSCKASGYTFTSYYMHWVRQAPGQGLEWMGIINPSGGSTSYAQKFQGRVTMTRDTSTSTVYMELSSLRSEDTAVYYCAREPIAYGATLDLWGRGTLVTVSS
VL: EIVLTQSPGTLSLSPGERATLSCRASQSVSSDYLAWYQQKPGQAPRLLIYGASSRATGIPDRFSGSGSGTDFTLTISRLEPEDFAVYYCQQYVVFPFTFGGGTKVEIK
B15: BIIB-9-472 (antibody, V domains shown)
VH: EVQLVESGGGLVKPGGSLRLSCAASGFTFSSYSMNWVRQAPGKGLEWVSSISSSSSYIYYADSVKGRFTISRDNAKNSLYLQMNSLRAEDTAVYYCARGGRYSGSWSWNIWGQGTMVTVSS
VL: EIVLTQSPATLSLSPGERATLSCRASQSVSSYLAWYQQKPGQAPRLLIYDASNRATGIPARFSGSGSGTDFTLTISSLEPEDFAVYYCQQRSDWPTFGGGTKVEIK
B16: BIIB-9-588 (antibody, V domains shown)
VH: QVQLVQSGAEVKKPGASVKVSCKASGYTFTSYYMHWVRQAPGQGLEWMGIINPSGGSTTYAQKFQGRVTMTRDTSTSTVYMELSSLRSEDTAVYYCARDGGGSYDYWSGYWYDVWGQGTTVTVSS
VL: EIVMTQSPATLSVSPGERATLSCRASQSVSSNLAWYQQKPGQAPRLLIYGASTRATGIPARFSGSGSGTEFTLTISSLQSEDFAVYYCQQAYNWPFTFGGGTKVEIK
B17: BIIB-9-452 (antibody, V domains shown)
VH: B5 VH with P100G, P101R, S102L, W103S, V105T, F106W, I108R, M114L
VL: B16 VL with Y92N, W94F
B18: BIIB-9-566 (antibody, V domains shown)
VH: QVQLVQSGAEVKKPGASVKVSCKASGYTFTSYYMVWVRQAPGQGLEWMGIINPSGGSTSYAQKFQGRVTMTRDTSTSTVYMELSSLRSEDTAVYYCARVPTYRYSYLAFDIWGQGTMVTVSS
VL: B16 VL with N32S, A91H, Y92D, F96P
B19: BIIB-9-889 (antibody, V domains shown)
VH: QLQLQESGPGLVKPSETLSLTCTVSGGSISSSSYYWGWIRQPPGKGLEWIGSIYYSGSTYYNPSLKSRVTISVDTSKNQFSLKLSSVTAADTAVYYCARDVGWYTEYFDLWGRGTLVTVSS
VL: B16 VL with Y92F, F96P
B20: BIIB-9-631 (antibody, V domains shown)
VH: QVQLVQSGAEVKKPGASVKVSCKASGYTFTSYYMHWVRQAPGQGLEWMGIINPSGGSTSYAQKFQGRVTMTRDTSTSTVYMELSSLRSEDTAVYYCARAENRGDYEAWGQGTLVTVSS
VL: DIQMTQSPSSVSASVGDRVTITCRASQGISRWLAWYQQKPGKAPKLLIYAASSLQSGVPSRFSGSGSGTDFTLTISSLQPEDFATYYCQQRTSFPLTFGGGTKVEIK
B21: BIIB-9-886 (antibody, V domains shown)
VH: QVQLVQSGAEVKKPGASVKVSCKASGYTFTSYYMHWVRQAPGQGLEWMGIINPSGGSTSYAQKFQGRVTMTRDTSTSTVYMELSSLRSEDTAVYYCARDPAHSYLDAFDIWGQGTMVTVSS
VL: B20 VL with R31S, R91A, T92S, L96F
B22: BIIB-9-1286 (antibody, V domains shown)
VH: B18 VH
VL: B20 VL with R31S, A84V, R91A, T92S, L96P
B23: BIIB-9-1265 (antibody, V domains shown)
VH: B19 VH with V101G, G102R, W103H, T105Y, Y107L, L110Y, R113Q
VL: B20 VL with R31S, R91G, T92N, L96I
B24: BIIB-9-408 (antibody, V domains shown)
VH: QVQLVQSGAEVKKPGASVKVSCKASGYTFTSYYMHWVRQAPGQGLEWMGIINPSGGSTTYAQKFQGRVTMTRDTSTSTVYMELSSLRSEDTAVYYCARDPGAYDDWSGYDDYGMDVWGQGTTVTVSS
VL: EIVLTQSPATLSLSPGERATLSCRASQSVSSYLAWYQQKPGQAPRLLIYDASNRATGIPARFSGSGSGTDFTLTISSLEPEDFAVYYCQQAFVWPPITFGGGTKVEIK

Changes are numbered by the printed parent chain.

For this test, the target named is free FIXa (activated Factor IX) (UniProt P00740 47-191; P00740 227-461). As to the kind of experiment: BLI. A general note: Biolayer interferometry detects binding as a change in optical thickness at a sensor tip.
For orientation: Kd means the free concentration of one partner at which half of the binding sites on the other are occupied at equilibrium, for simple one-to-one binding. The low end stands for higher affinity, the high end for lower affinity. On to B1, for which the equilibrium dissociation constant (Kd) is 20.6 nM.

B2 had a dissociation constant (Kd) of 0.669 nM.

B3 gave a dissociation constant Kd of 9.11 nM.

For B4, the Kd was determined as 14 nM.

B5 returned an equilibrium dissociation constant (Kd) of 51.5 nM.

B6 gave an equilibrium dissociation constant (Kd) of 11.9 nM.

Molecule B7 registered a Kd of 58.8 nM.

In turn, B8 displayed a Kd of 42.6 nM.

B9 had a dissociation constant (Kd) of 2.98 nM.

B10 displayed a Kd of 17.2 nM.

The molecule B11 showed an equilibrium dissociation constant (Kd) of 15.8 nM.

Molecule B12 displayed a dissociation constant Kd of 8.76 nM.

The molecule B13 displayed a Kd of 166 nM.

As to B14, the dissociation constant (Kd) came to 108 nM.

Consider B15, for which binding was put at a Kd of 8.99 nM.

The molecule B16 gave a Kd of 16.5 nM.

B17 came in with a dissociation constant Kd of 11.7 nM.

The molecule B18 yielded a Kd of 21.4 nM.

In turn, B19 came in with a Kd of 40.7 nM.

In the case of B20, the Kd was 61.2 nM.

In the case of B21, the affinity, expressed as Kd, was 30.8 nM.

The molecule B22 yielded a Kd of 31.8 nM.

In turn, B23 showed a Kd of 59.8 nM.

In turn, B24 displayed a Kd of 1.36 nM.
